Kd data for three molecules are collected here from patent publication US20250136963A1 (DENALI THERAPEUTICS, published 2025).

The labels stand for the following.
B1: ETV:IDUA Fusion 3 (Fc fusion)
chain 1: DKTHTCPPCPAPEAAGGPSVFLFPPKPKDTLMISRTPEVTCVVVDVSHEDPEVKFNWYVDGVEVHNAKTKPREEQYNSTYRVVSVLTVLHQDWLNGKEYKCKVSNKALSAPIEKTISKAKGQPREPQVYTLPPSRDELTKNQVSLWCLVKGFYPSDIAVEWESYGTEWANYKTTPPVLDSDGSFFLYSKLTVTKEEWQQGFVFSCSVMHEALHNHYTQKSLSLSPGK
chain 2: EAPHLVQVDAARALWPLRRFWRSTGFCPPLPHSQADQYVLSWDQQLNLAYVGAVPHRGIKQVRTHWLLELVTTRGSTGRGLSYNFTHLDGYLDLLRENQLLPGFELMGSASGHFTDFEDKQQVFEWKDLVSSLARRYIGRYGLAHVSKWNFETWNEPDHHDFDNVSMTMQGFLNYYDACSEGLRAASPALRLGGPGDSFHTPPRSPLSWGLLRHCHDGTNFFTGEAGVRLDYISLHRKGARSSISILEQEKVVAQQIRQLFPKFADTPIYNDEADPLVGWSLPQPWRADVTYAAMVVKVIAQHQNLLLANTTSAFPYALLSNDNAFLSYHPHPFAQRTLTARFQVNNTRPPHVQLLRKPVLTAMGLLALLDEEQLWAEVSQAGTVLDSNHTVGVLASAHRPQGPADAWRAAVLIYASDDTRAHPNRSVAVTLRLRGVPPGPGLVYVTRYLDNGLCSPDGEWRRLGRPVFPTAEQFRRMRAAEDPVAAAPRPLPAGGRLTLRPALRLPSLLLVHVCARPEKPPGQVTRLRALPLTQGQLVLVWSDEHVGSKCLWTYEIQFSQDGKAYTPVSRKPSTFNLFVFSPDTGAVSGSYRVRALDYWARPGPFSDPVPYLEVPVPRGPPSPGNPGGGGSDKTHTCPPCPAPEAAGGPSVFLFPPKPKDTLMISRTPEVTCVVVDVSHEDPEVKFNWYVDGVEVHNAKTKPREEQYNSTYRVVSVLTVLHQDWLNGKEYKCKVSNKALSAPIEKTISKAKGQPREPQVYTLPPSRDELTKNQVSLSCAVKGFYPSDIAVEWESNGQPENNYKTTPPVLDSDGSFFLVSKLTVDKSRWQQGNVFSCSVMHEALHNHYTQKSLSLSPGK
notes: Heterodimer of the two chains; also called third N-terminal monozyme IDUA-Fc fusion protein
B2: ETV:IDUA Fusion 4 (Fc fusion)
chain 1: DKTHTCPPCPAPEAAGGPSVFLFPPKPKDTLMISRTPEVTCVVVDVSHEDPEVKFNWYVDGVEVHNAKTKPREEQYNSTYRVVSVLTVLHQDWLNGKEYKCKVSNKALSAPIEKTISKAKGQPREPQVYTLPPSRDELTKNQVSLWCLVKGFYPSDIAVEWESYGTEWANYKTTPPVLDSDGSFFLYSKLTVTKEEWQQGFVFSCSVMHEALHNHYTQKSLSLSPGK
chain 2: EAPHLVQVDAARALWPLRRFWRSTGFCPPLPHSQADQYVLSWDQQLNLAYVGAVPHRGIKQVRTHWLLELVTTRGSTGRGLSYNFTHLDGYLDLLRENQLLPGFELMGSASGHFTDFEDKQQVFEWKDLVSSLARRYIGRYGLAHVSKWNFETWNEPDHHDFDNVSMTMQGFLNYYDACSEGLRAASPALRLGGPGDSFHTPPRSPLSWGLLRHCHDGTNFFTGEAGVRLDYISLHRKGARSSISILEQEKVVAQQIRQLFPKFADTPIYNDEADPLVGWSLPQPWRADVTYAAMVVKVIAQHQNLLLANTTSAFPYALLSNDNAFLSYHPHPFAQRTLTARFQVNNTRPPHVQLLRKPVLTAMGLLALLDEEQLWAEVSQAGTVLDSNHTVGVLASAHRPQGPADAWRAAVLIYASDDTRAHPNRSVAVTLRLRGVPPGPGLVYVTRYLDNGLCSPDGEWRRLGRPVFPTAEQFRRMRAAEDPVAAAPRPLPAGGRLTLRPALRLPSLLLVHVCARPEKPPGQVTRLRALPLTQGQLVLVWSDEHVGSKCLWTYEIQFSQDGKAYTPVSRKPSTFNLFVFSPDTGAVSGSYRVRALDYWARPGPFSDPVPYLEVPVGGGGSDKTHTCPPCPAPEAAGGPSVFLFPPKPKDTLMISRTPEVTCVVVDVSHEDPEVKFNWYVDGVEVHNAKTKPREEQYNSTYRVVSVLTVLHQDWLNGKEYKCKVSNKALSAPIEKTISKAKGQPREPQVYTLPPSRDELTKNQVSLSCAVKGFYPSDIAVEWESNGQPENNYKTTPPVLDSDGSFFLVSKLTVDKSRWQQGNVFSCSVMHEALHNHYTQKSLSLSPGK
notes: Heterodimer of the two chains; also called fourth N-terminal monozyme IDUA-Fc fusion protein
B3: ETV:IDUA Fusion 6 (Fc fusion)
chain 1: DKTHTCPPCPAPEAAGGPSVFLFPPKPKDTLMISRTPEVTCVVVDVSHEDPEVKFNWYVDGVEVHNAKTKPREEQYNSTYRVVSVLTVLHQDWLNGKEYKCKVSNKALSAPIEKTISKAKGQPREPQVYTLPPSRDELTKNQVSLWCLVKGFYPSDIAVEWESYGTEWANYKTTPPVLDSDGSFFLYSKLTVTKEEWQQGFVFSCSVMHEALHNHYTQKSLSLSPGK
chain 2: DKTHTCPPCPAPEAAGGPSVFLFPPKPKDTLMISRTPEVTCVVVDVSHEDPEVKFNWYVDGVEVHNAKTKPREEQYNSTYRVVSVLTVLHQDWLNGKEYKCKVSNKALSAPIEKTISKAKGQPREPQVYTLPPSRDELTKNQVSLSCAVKGFYPSDIAVEWESNGQPENNYKTTPPVLDSDGSFFLVSKLTVDKSRWQQGNVFSCSVMHEALHNHYTQKSLSLSPGKGGGGSEAPHLVQVDAARALWPLRRFWRSTGFCPPLPHSQADQYVLSWDQQLNLAYVGAVPHRGIKQVRTHWLLELVTTRGSTGRGLSYNFTHLDGYLDLLRENQLLPGFELMGSASGHFTDFEDKQQVFEWKDLVSSLARRYIGRYGLAHVSKWNFETWNEPDHHDFDNVSMTMQGFLNYYDACSEGLRAASPALRLGGPGDSFHTPPRSPLSWGLLRHCHDGTNFFTGEAGVRLDYISLHRKGARSSISILEQEKVVAQQIRQLFPKFADTPIYNDEADPLVGWSLPQPWRADVTYAAMVVKVIAQHQNLLLANTTSAFPYALLSNDNAFLSYHPHPFAQRTLTARFQVNNTRPPHVQLLRKPVLTAMGLLALLDEEQLWAEVSQAGTVLDSNHTVGVLASAHRPQGPADAWRAAVLIYASDDTRAHPNRSVAVTLRLRGVPPGPGLVYVTRYLDNGLCSPDGEWRRLGRPVFPTAEQFRRMRAAEDPVAAAPRPLPAGGRLTLRPALRLPSLLLVHVCARPEKPPGQVTRLRALPLTQGQLVLVWSDEHVGSKCLWTYEIQFSQDGKAYTPVSRKPSTFNLFVFSPDTGAVSGSYRVRALDYWARPGPFSDPVPYLEVPVPRGPPSPGNP
notes: Heterodimer of the two chains; also called C-terminal monozyme IDUA-Fc fusion protein

In the experiment the target is T1, human apical domain TfR (human, UniProt P02786 198-378).
T1 construct: also called human TfR; human transferrin receptor 1 apical domain
T1 sequence (P02786 198-378 limits assumed): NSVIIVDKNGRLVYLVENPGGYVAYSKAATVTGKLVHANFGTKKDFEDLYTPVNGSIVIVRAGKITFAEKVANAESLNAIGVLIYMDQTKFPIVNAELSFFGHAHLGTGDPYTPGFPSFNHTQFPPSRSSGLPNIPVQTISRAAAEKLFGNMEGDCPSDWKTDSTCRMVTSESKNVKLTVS
Kind of experiment: SPR (Biacore 8K), fusion captured on Protein A chip, human TfR apical domain as analyte, 1:1 Langmuir fit, monovalent. Here is the method:
To determine whether IDUA-Fc fusion proteins with engineered TfR binding affects the ability of the modified Fc domain to interact with human TfR, the affinity of ETV:IDUA Fusions 3, 4, and 6 (Example 1) for human TfR was measured by surface plasmon resonance (SPR) using a Biacore 8K instrument (Cytiva). Five (5) μg/mL of the IDUA-Fc fusion proteins were captured for 1 minute on Protein A-coated Biacore™ Series S CM5 sensor chip and serial 3-fold dilutions of human apical domain TfR were injected at a flow rate of 30 μL/min. Each sample was analyzed with five consecutive 60-second injections with increasing human TfR concentrations followed by a 60-second dissociation at the end of the injection cycle. After each injection, the chip was regenerated using 10 mM glycine-HCl (pH 1.5). Binding response was corrected by subtracting the RU from a flow cell capturing an irrelevant IgG at similar density A. 1:1 Languir model of simultaneous fitting of kₒₙ and koff was used for kinetics analysis using Biacore™ Insight Evaluation Software.
For orientation: Surface plasmon resonance follows binding to a sensor surface in real time, without labels.
The Kd is a measure of binding affinity in units of concentration. The molecule B1 came in with a Kd of 340 nM. In turn, B2 displayed a Kd of 355 nM.

In turn, B3 came in with a dissociation constant Kd of 200 nM.
